Measured values taken from US20130177979A1, “METHODS AND COMPOSITIONS FOR CELL PERMEABLE STAT3 INHIBITOR” (University of Central Florida Research Foundation, Inc., priority 2010, published 2013).

How the values were obtained:
PpYLKTK (pY705 Stat3) = molecular target: T1, PpYLKTK (pY705 Stat3) (Homo sapiens, UniProt P40763); assay: SPR binding to Stat3-derived pTyr705 peptide PpYLKTK; details: immobilized on sensor chip, PpYLKTK as analyte
T1 construct: the Stat3-derived pTyr705 peptide, PpYLKTK
Experimental: (§1) Association and dissociation measurements were taken and the affinities were determined using Qdat software.
(§2) Surface plasmon resonance analysis. […] Various concentrations of pTyr peptides (analyte) in running buffer (1×PBS, 0.5% DMSO) were passed over the sensor chip to produce response signals. The response signals were referenced by subtracting the response generated by passing across a surface without the analytes. The association and dissociation rate constants were calculated using the Qdat software. The ratio of the association and dissociation rate constants was determined as the affinity (KD).

GpYLPQTV (IL-6R/gp130) = GpYLPQTV (IL-6R/gp130) (Homo sapiens, UniProt P40189, S904G); details: SPR; SPI, Stat3 SH2 domain or Stat3 immobilized on sensor chip, GpYLPQTV as analyte
Experimental: as §1, §2

PEpYINQS (pY1068EGFR) = molecular target: T2, PEpYINQS (pY1068EGFR) (Homo sapiens, UniProt P00533); assay: SPR binding to EGFR pY1068 peptide PEpYINQS; details: immobilized on sensor chip, PEpYINQS as analyte
T2 construct: the pY1068 of EGFR, PEpYINQS
Experimental: as §1, §2

GpYIKTE (pY701Stat1) = molecular target: T3, GpYIKTE (pY701Stat1) (Homo sapiens, UniProt P42224); assay: SPR binding to Stat1 pY701 peptide GpYIKTE; details: immobilized on sensor chip, GpYIKTE as analyte
T3 construct: the Stat1 pY701 peptide, GpYIKTE
Experimental: as §1, §2

GpYVKPQ (pY694Stat5) = molecular target: T4, GpYVKPQ (pY694Stat5) (Homo sapiens, UniProt P42229); assay: SPR binding to Stat5 pTyr peptide GpYVKPQ; details: immobilized on sensor chip, GpYVKPQ as analyte
T4 construct: the pTyr peptide of Stat5, GpYVKPQ
Experimental: as §1, §2

PVpYHNQP (pY1086EGFR) = molecular target: T5, PVpYHNQP (pY1086EGFR) (Homo sapiens, UniProt P00533); assay: SPR binding to EGFR pY1086 peptide PVpYHNQP; details: immobilized on sensor chip, PVpYHNQP as analyte
T5 construct: the pY1086 peptide of EGFR, PVpYHNQP
Experimental: as §1, §2

## Stat3 SH2 domain: Purified His-tagged Stat3 SH2 domain, recombinant protein expressed in BL21(DE3) cells (FISKERERAILSTKPPGTFLLRFSESSK)
PpYLKTK (pY705 Stat3)
  Kd: 1.6 µM
GpYLPQTV (IL-6R/gp130)
  Kd: 0.03 µM
PEpYINQS (pY1068EGFR)
  Kd: 0.4 µM
GpYIKTE (pY701Stat1)
  Kd: 6.6 µM
GpYVKPQ (pY694Stat5)
  Kd: 5200 µM
PVpYHNQP (pY1086EGFR)
  Kd: 2.6 µM

## full-length Stat3: Purified His-tagged Stat3 protein, recombinant, expressed in BL21(DE3) cells
PpYLKTK (pY705 Stat3)
  Kd: 0.9 µM
GpYLPQTV (IL-6R/gp130)
  Kd: 0.02 µM
GpYIKTE (pY701Stat1)
  Kd: 4.4 µM
GpYVKPQ (pY694Stat5)
  Kd: 1200 µM
